Experimental data as given in patent publication US20110263454A1, “Methods of Identifying Functional Characteristics of Promoters, Transcription Modifying Proteins and Transcription Modulating Agents” (Salk Institute for Biological Studies, priority 2008, published 2011).

Key:
Bmal1 promoter = assay: NHR-promoter luciferase screen, Bmal1 promoter; type: cell-based, mouse; details: for Luc. act., normalized to lacZ / Normalized Luc. act., normalized to control: Bmal1 promoter, HR component without or with ligand; for mBmal1 promoter reporter activity: transcription factor +/- ligand, control = 1.00
Method in brief: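 CV-1 cells co-transfected with 50 ng NHR (V5H6-tagged, pcDNA3.1; homodimer or RXR heterodimer), 100 ng Bmal1 promoter-luciferase and 50 ng LacZ. Luciferase was normalized to LacZ and to a no-NHR/ligand control.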

mNPY promoter = assay: NHR-promoter luciferase screen, mNPY promoter; type: cell-based, mouse; details: for Results of assays of transcription factor (+/- ligand) with mNPY: Table 6d, luciferase activity relative to control (control = 1.00); for Luc. act., normalized to lacZ / Normalized Luc. act., normalized to control: mNPY promoter, HR component with or without ligand; for Normalized Luc. act., normalized to control: relative to control
Method in brief: (§1)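 CV-1 cells were co-transfected with 50 ng NHR (homodimer or NHR/RXR heterodimer), 100 ng promoter-luciferase construct and 50 ng LacZ. Luciferase was normalized to LacZ and to a no-NHR/no-ligand control.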

mABCA1 promoter = assay: NHR-promoter luciferase screen, mABCA1 promoter; type: cell-based, mouse; details: for Luc. act., normalized to lacZ / Normalized Luc. act., normalized to control: ABCA1 promoter, hormone receptor with or without its ligand; for Normalized Luc. act., normalized to control: relative to control; for mABCA1 promoter reporter activity: transcription factor +/- ligand, control = 1.00
Method in brief: as §1

hPPARg2 promoter = assay: NHR-promoter luciferase screen, hPPARg2 promoter; type: cell-based, human; details: for Luc. act., normalized to lacZ / Normalized Luc. act., normalized to control: PPARG2 promoter, hormone receptor with or without its ligand; for Normalized Luc. act., normalized to control: relative to control; for Results of assays of transcription factor (+/- ligand) with hPPARg2: Table 6d, luciferase activity relative to control (control = 1.00)
Method in brief: as §1

hG6PD promoter = assay: NHR-promoter luciferase screen, hG6PD promoter; type: cell-based, human; details: for Luc. act., normalized to lacZ / Normalized Luc. act., normalized to control: G6PD promoter reporter, co-transfected HR, without or with its ligand; for Normalized Luc. act., normalized to control: relative to control; for luciferase activity normalized to lacZ activity and to a control, hG6PD: hG6PD promoter-luciferase, CV-1 cells, NHR +/- ligand, control = 1.00
Method in brief: as §1

hTNFa promoter = assay: NHR-promoter luciferase screen, hTNFa promoter; type: cell-based, human; details: for Luc. act., normalized to lacZ / Normalized Luc. act., normalized to control: TNFa promoter, HR component without or with ligand; for hTNFa promoter reporter activity: transcription factor +/- ligand, control = 1.00
Method in brief: as §1

Molecule	Luc. act., normalized to lacZ (Bmal1 promoter)	Normalized Luc. act., normalized to control (Bmal1 promoter)	mBmal1 promoter reporter activity (Bmal1 promoter)	Results of assays of transcription factor (+/- ligand) with mNPY (mNPY promoter)	Luc. act., normalized to lacZ (mNPY promoter)	Normalized Luc. act., normalized to control (mNPY promoter)	Luc. act., normalized to lacZ (mABCA1 promoter)	Normalized Luc. act., normalized to control (mABCA1 promoter)	mABCA1 promoter reporter activity (mABCA1 promoter)	Luc. act., normalized to lacZ (hPPARg2 promoter)	Normalized Luc. act., normalized to control (hPPARg2 promoter)	Results of assays of transcription factor (+/- ligand) with hPPARg2 (hPPARg2 promoter)	Luc. act., normalized to lacZ (hG6PD promoter)	Normalized Luc. act., normalized to control (hG6PD promoter)	luciferase activity normalized to lacZ activity and to a control, hG6PD (hG6PD promoter)	Luc. act., normalized to lacZ (hTNFa promoter)	Normalized Luc. act., normalized to control (hTNFa promoter)	hTNFa promoter reporter activity (hTNFa promoter)
Erb: Estrogen Receptor β (NR3A2, ERb), cDNA driver (protein, UniProt Q92731 1-530, looked up) Estrogen receptor beta: MDIKNSPSSLNSPSSYNCSQSILPLEHGSIYIPSSYVDSHHEYPAMTFYSPAVMNYSIPSNVTNLEGGPGRQTTSPNVLWPTPGHLSPLVVHRQLSHLYAEPQKSPWCEARSLEHTLPVNRETLKRKVSGNRCASPVTGPGSKRDAHFCAVCSDYASGYHYGVWSCEGCKAFFKRSIQGHNDYICPATNQCTIDKNRRKSCQACRLRKCYEVGMVKCGSRRERCGYRLVRRQRSADEQLHCAGKAKRSGGHAPRVRELLLDALSPEQLVLTLLEAEPPHVLISRPSAPFTEASMMMSLTKLADKELVHMISWAKKIPGFVELSLFDQVRLLESCWMEVLMMGLMWRSIDHPGKLIFAPDLVLDRDEGKCVEGILEIFDMLLATTSRFRELKLQHKEYLCVKAMILLNSSMYPLVTATQDADSSRKLAHLLNAVTDALVWVIAKSGISSQQQSMRLANLLMLLSHVRHASNKGMEHLLNMKCKNVVPVYDLLLEMLNAHVLRGCKSSITGSECSPAEDSKSKEGSQNPQSQ	17.0	1.1	1.09	0.79	66.5	0.8	12.4	2.2	2.21	2.3	1.1	1.13	45.3	1.2	1.21	811.5	0.8	0.83
CTF2: COUP-TF2 (NR2F2), cDNA driver (protein, UniProt P24468 1-414, looked up) COUP transcription factor 2: MAMVVSTWRDPQDEVPGSQGSQASQAPPVPGPPPGAPHTPQTPGQGGPASTPAQTAAGGQGGPGGPGSDKQQQQQHIECVVCGDKSSGKHYGQFTCEGCKSFFKRSVRRNLSYTCRANRNCPIDQHHRNQCQYCRLKKCLKVGMRREAVQRGRMPPTQPTHGQFALTNGDPLNCHSYLSGYISLLLRAEPYPTSRFGSQCMQPNNIMGIENICELAARMLFSAVEWARNIPFFPDLQITDQVALLRLTWSELFVLNAAQCSMPLHVAPLLAAAGLHASPMSADRVVAFMDHIRIFQEQVEKLKALHVDSAEYSCLKAIVLFTSDACGLSDVAHVESLQEKSQCALEEYVRSQYPNQPTRFGKLLLRLPSLRTVSSSVIEQLFFVRLVGKTPIETLIRDMLLSGSSFNWPYMAIQ	29.5	1.9	1.89	0.65	54.7	0.7	4.7	0.8	0.84	1.5	0.8	0.76	43.9	1.2	1.17	1014.3	1.0	1.03
ERR2: Estrogen Related Receptor β (NR3B2, ERRb), cDNA driver (protein, UniProt O95718 1-433, looked up) Steroid hormone receptor ERR2: MSSDDRHLGSSCGSFIKTEPSSPSSGIDALSHHSPSGSSDASGGFGLALGTHANGLDSPPMFAGAGLGGTPCRKSYEDCASGIMEDSAIKCEYMLNAIPKRLCLVCGDIASGYHYGVASCEACKAFFKRTIQGNIEYSCPATNECEITKRRRKSCQACRFMKCLKVGMLKEGVRLDRVRGGRQKYKRRLDSESSPYLSLQISPPAKKPLTKIVSYLLVAEPDKLYAMPPPGMPEGDIKALTTLCDLADRELVVIIGWAKHIPGFSSLSLGDQMSLLQSAWMEILILGIVYRSLPYDDKLVYAEDYIMDEEHSRLAGLLELYRAILQLVRRYKKLKVEKEEFVTLKALALANSDSMYIEDLEAVQKLQDLLHEALQDYELSQRHEEPWRTGKLLLTLPLLRQTAAKAVQHFYSVKLQGKVPMHKLFLEMLEAKV	10.6	0.7	0.68	1.02	85.4	1.0	33.0	5.9	5.88	3.2	1.6	1.59	59.1	1.6	1.58	1655.6	1.7	1.68
ERR3: Estrogen Related Receptor γ (NR3B3, ERRg), cDNA driver (protein, UniProt P62508 1-458, looked up) Estrogen-related receptor …: MDSVELCLPESFSLHYEEELLCRMSNKDRHIDSSCSSFIKTEPSSPASLTDSVNHHSPGGSSDASGSYSSTMNGHQNGLDSPPLYPSAPILGGSGPVRKLYDDCSSTIVEDPQTKCEYMLNSMPKRLCLVCGDIASGYHYGVASCEACKAFFKRTIQGNIEYSCPATNECEITKRRRKSCQACRFMKCLKVGMLKEGVRLDRVRGGRQKYKRRIDAENSPYLNPQLVQPAKKPYNKIVSHLLVAEPEKIYAMPDPTVPDSDIKALTTLCDLADRELVVIIGWAKHIPGFSTLSLADQMSLLQSAWMEILILGVVYRSLSFEDELVYADDYIMDEDQSKLAGLLDLNNAILQLVKKYKSMKLEKEEFVTLKAIALANSDSMHIEDVEAVQKLQDVLHEALQDYEAGQHMEDPRRAGKMLMTLPLLRQTSTKAVQHFYNIKLEGKVPMHKLFLEMLEAKV	9.5	0.6	0.61	1.11	93.1	1.1	11.4	2.0	2.04	2.1	1.0	1.04	63.7	1.7	1.70	2705.8	2.8	2.75
TR4: Testicular Orphan Nuclear Receptor 4 (NR2C2), cDNA driver (protein, UniProt P49116 1-596, looked up) Nuclear receptor subfamily 2 …: MTSPSPRIQIISTDSAVASPQRIQIVTDQQTGQKIQIVTAVDASGSPKQQFILTSPDGAGTGKVILASPETSSAKQLIFTTSDNLVPGRIQIVTDSASVERLLGKTDVQRPQVVEYCVVCGDKASGRHYGAVSCEGCKGFFKRSVRKNLTYSCRSNQDCIINKHHRNRCQFCRLKKCLEMGMKMESVQSERKPFDVQREKPSNCAASTEKIYIRKDLRSPLIATPTFVADKDGARQTGLLDPGMLVNIQQPLIREDGTVLLATDSKAETSQGALGTLANVVTSLANLSESLNNGDTSEIQPEDQSASEITRAFDTLAKALNTTDSSSSPSLADGIDTSGGGSIHVISRDQSTPIIEVEGPLLSDTHVTFKLTMPSPMPEYLNVHYICESASRLLFLSMHWARSIPAFQALGQDCNTSLVRACWNELFTLGLAQCAQVMSLSTILAAIVNHLQNSIQEDKLSGDRIKQVMEHIWKLQEFCNSMAKLDIDGYEYAYLKAIVLFSPDHPGLTSTSQIEKFQEKAQMELQDYVQKTYSEDTYRLARILVRLPALRLMSSNITEELFFTGLIGNVSIDSIIPYILKMETAEYNGQITGASL	22.5	1.4	1.44	2.86	239.8	2.9	36.4	6.5	6.49	3.3	1.6	1.65	66.2	1.8	1.77	1189.6	1.2	1.21
CTF1: COUP-TF1 (NR2F1), cDNA driver (protein, UniProt P10589 1-423, looked up) COUP transcription factor 1: MAMVVSSWRDPQDDVAGGNPGGPNPAAQAARGGGGGAGEQQQQAGSGAPHTPQTPGQPGAPATPGTAGDKGQGPPGSGQSQQHIECVVCGDKSSGKHYGQFTCEGCKSFFKRSVRRNLTYTCRANRNCPIDQHHRNQCQYCRLKKCLKVGMRREAVQRGRMPPTQPNPGQYALTNGDPLNGHCYLSGYISLLLRAEPYPTSRYGSQCMQPNNIMGIENICELAARLLFSAVEWARNIPFFPDLQITDQVSLLRLTWSELFVLNAAQCSMPLHVAPLLAAAGLHASPMSADRVVAFMDHIRIFQEQVEKLKALHVDSAEYSCLKAIVLFTSDACGLSDAAHIESLQEKSQCALEEYVRSQYPNQPSRFGKLLLRLPSLRTVSSSVIEQLFFVRLVGKTPIETLIRDMLLSGSSFNWPYMSIQCS	26.1	1.7	1.67	0.47	39.2	0.5	5.5	1.0	0.99	1.4	0.7	0.71	39.7	1.1	1.06	728.5	0.7	0.74
